Test results from patent US20240424117A1, “Paclitaxel Prodrug, Preparation Method and Application Thereof” (WEST CHINA HOSPITAL, SICHUAN UNIVERSITY, priority 2023, published 2024).

Assays:
Assay type in all cases: physicochemical
[1] = Particle size, particle size distribution and zeta potential of micelles by dynamic light scattering; conditions: prodrug micelles in aqueous solution, 25° C.; for PDI / Size(nm): DLS
Experimental: The particle size, particle size distribution and zeta potential of micelles were measured by Zetasizer Nano ZS Dynamic light scattering (DLS) potentiometer (Malvern, UK) at 25° C. and 90° scattering angle.

[2] = Study on the stability of micelles in vitro (PBS or added glutathione, DLS); conditions: GSH added, 37° C. shaker, DLS (FIG. 5)
Experimental: In order to study the stability of micelles in vitro, the micellar solution was dropped into PBS simulating the human physiological environment, or a certain amount of glutathione was added. All samples were placed in a 37° C. constant temperature shaker (110 rpm), and the stability of micelles was studied by dynamic light scattering at the pre-determined time points.

[3] = Release performance of prodrug (dialysis, HPLC determination of paclitaxel); conditions: for time to almost complete release of paclitaxel: 37° C.; for change of release rate after the addition of GSH: with GSH (10 mM) versus without
Experimental: The testing instrument was Agilent 1260 series (USA), with a reversed phase C18 column (4.6×100 mm). The mobile phase was acetonitrile/water (80/20), the column temperature was 30° C., the flow rate was 1.0 mL/min, and the detection wavelength was 227 nm.
Firstly, HPLC was used to detect the response of PTX in this mobile phase. After accurately weighing a certain amount of paclitaxel, PTX was prepared with the mixed solvent of acetonitrile and ultrapure water (9/1, v/v) into a series of standard solutions at different concentrations. Linear regression was performed between the measured response peak area A and concentration C, to obtain the standard curve of the PTX solution. The curve equation was fitted, and the concentration-peak area curve equation of PTX was Y=25.025X, with a correlation coefficient of R^2=0.9996.
3 mL of drug-loaded micelles were loaded into a dialysis bag (MWCO=1000), and the release medium was PBS containing 30% ethanol (V/V) (pH 5.0 or 7.4). The release of paclitaxel from self-assembled nanoparticles of prodrug was investigated with or without the addition of glutathione (10 mM GSH). The specific procedures are as follows: 3 mL of prodrug nanoparticle solution (1 mg/mL) was placed into a dialysis bag (MW1000) and added to 30 mL of the release media, and then the entire system was transferred into a constant temperature shaker (37° C., 110 rpm). 1 mL of release solution was collected at different pre-determined time points, taking 3 parallel samples at each time point. After sampling, the same volume of pure PBS or PBS containing 10 mM GSH (10 Mm) was supplemented, and the drug concentration was determined by HPLC. The cumulative release was calculated using the following formula:
[formula] • wherein R is the cumulative release amount; Vi is the total volume of the solution before the i-th sampling; Ci is the total concentration of the solution before the i-th sampling; Vsj is the jth sampling volume; Cj is the total concentration of the solution before the jth sampling, i=2, 3, 4 . . .; j=i−1.

[4] = Transmission electron microscopy of micellar morphology; conditions: TEM (FIG. 3)
Experimental: A small amount of micellar solution fully mixed under ultrasonic was added dropwise onto the copper mesh coated with Formvar film, and then dyed with 1% (w/v) phosphotungstic acid staining solution for 3 min. Subsequently, the excess liquid was absorbed with filter paper, and the copper mesh was allowed to dry naturally. Then, Tecnai G2 F20 S-TWIN transmission electron microscopy (FEI Corporation, USA) was used to observe the micellar morphology, and the acceleration voltage was 75 KV.

[5] = acidic pH 5.0, with GSH (10 mM)
[6] = neutral pH 7.4, with GSH (10 mM)

Substance	Zeta Potential(mV) [1]	PDI [1]	Size(nm) [1]	micelle state (particle size and PDI) after addition of glutathione [2]	time to almost complete release of paclitaxel [3, 5]	time to almost complete release of paclitaxel [3, 6]	change of release rate after the addition of GSH [3]	micelle morphology and dispersion [4]
paclitaxel-adipic acid-polyethylene glycol [PAP]	−13.2 ± 0.6 mV	0.103 ± 0.037	109.43 ± 0.94 nm					
paclitaxel-adipic acid-polyethylene glycol-RGD peptide [PAPR]	−9.91 ± 0.3 mV	0.110 ± 0.002	117.93 ± 5.57 nm					
paclitaxel-dithiodipropionic acid-polyethylene glycol [PDP]	−18.1 ± 0.8 mV	0.166 ± 0.003	129.07 ± 1.76 nm	significantly disintegrated	144 h	120 h	significantly accelerated	
paclitaxel-dithiodipropionic acid-polyethylene glycol-RGD Peptide [PDPR]	−7.38 ± 0.8 mV	0.065 ± 0.012	114.63 ± 1.53 nm	significantly disintegrated	144 h	120 h	significantly accelerated	uniform particle size and dispersion
